The source of these data is the DeepSol protein solubility set.

The series is described as follows: soluble on expression in E. coli; label from the status in PepcDB or PDB records.
Consider “MSLIASIGELLIDLISVEEGDLKDVRLFEKHPGGAPANVAVGVSRLGVKSSLISKVGNDPFGEYLIEELSKENVDTRGIVKDEKKHTGIVFVQLKGASPSFLLYDDVAYFNMTLNDINWDIVEEAKIVNFGSVILARNPSRETVMKVIKKIKGSSLIAFDVNLRLDLWRGQEEEMIKVLEESIKLADIVKASEEEVLYLENQGVEVKGSMLTAITLGPKGCRLIKNETVVDVPSYNVNPLDTTGAGDAFMAALLVGILKLKGLDLLKLGKFANLVAALSTQKRGAWSTPRKDELLKYKEAREVLAEGHHHHHH”, for which the “soluble on expression in E. coli” value is “soluble”.

In the case of “MVLSQRQRDELNRAIADYLRSNGYEEAYSVFKKEAELDMNEELDKKYAGLLEKKWTSVIRLQKKVMELESKLNEAKEEFTSGGPLGQKRDPKEWIPRPPEKYALSGHRSPVTRVIFHPVFSVMVSASEDATIKVWDYETGDFERTLKGHTDSVQDISFDHSGKLLASCSADMTIKLWDFQGFECIRTMHGHDHNVSSVSIMPNGDHIVSASRDKTIKMWEVQTGYCVKTFTGHREWVRMVRPNQDGTLIASCSNDQTVRVWVVATKECKAELREHRHVVECISWAPESSYSSISEATGSETKKSGKPGPFLLSGSRDKTIKMWDVSTGMCLMTLVGHDNWVRGVLFHSGGKFILSCADDKTLRVWDYKNKRCMKTLNAHEHFVTSLDFHKTAPYVVTGSVDQTVKVWECR”, the “soluble on expression in E. coli” value is on record as “soluble”.

For “MKSIYIILVNYNNFQDTIECVKSLRKIKNYHNYKVIIVDNDSKNDSVSKIKSFLQDCLLIESKKNLGFAGGNNLGIKYAMKHNADYVLLLNNDTVVENDFLDKLLEVHENYGNVGIVGGKIYYYYDKNRIWYAGGKINKFTGKTKHIGVNEIDEGQYNNISITGYVTGCMMLISKGAIEKCGVMDEKYFLYYEETDWNVRIKNAGFKIMYTPLSKIYHKVSSTTGKSDLIMSYYYDRNRYYFVFKNFNWVCKLSVTLYILVRLYAKLFKAIAINDVKRKHLIEYTIISIKNNIMGEIRV”, the “soluble on expression in E. coli” value is reported as “not soluble”.

Turning to “MDKKELFDALDDFSQQLLVTLADVEAIKKNLKSLVEENTALRLENSKLRERLGEVEADAPVKAKHVRESVRRIYRDGFHVCNDFYGQRREQDEECMFCDELLYRE”, the “soluble on expression in E. coli” value is listed as “not soluble”.

With “MNRSGQRLIVSAPRQIAFSTAVRQLSATPIQCQNESENSEPQKQGWISRLLKGQSMDPSSWQKQSHSSLLSNSELMYEFMTHNYRPGEQDAYLDAFGKYKNEMNQKNPSIELVGSWTCAYGRTRDQAIHLWRHNKGYEDVDSSISLHGKDSGIRAADNDVAKLCGRRKNLIVKSFSYWREPEQRPPNHVYDLRSYVLQPGTMIDWASAWAKGIQYRREANQDVGGFFAQVGQLYVVYHIWAYPSMSGRNDTRHATWAKPGWDATVANTVPLIKKMQSKILTPTKYSQLE”, the “soluble on expression in E. coli” value is on record as “not soluble”.

For the sequence “SLPHIITRKVISVEQNWLQQLANAISDPLQLLQQLEIDPSPWQDGFEARKLFAQRVPQSFVDRMQKGNPADPLLRQVLPLSAEFEIHPGYSHDPLDEQNNTVPGLLHKYKNRCLLIVKGGCAINCRYCFRRHFPYEDNKGGKSAWQQSLDYIAQNPQLNEVIFSGGDPLMAKDHEIAWLMERIAAIPHIKRLRIHSRLPVVIPARITDELVELFAQTRLQVLLVTHINHANEINLELKQQMARLRAVNVTLLNQGVLLKGVNDTVDAQVSLSETLFDAGILPYYLHVLDKVQGAAHFYVSDDKARQIMAGLIEQVSGYLVPKLTREIGGRPSKTPLDLHLE”, the “soluble on expression in E. coli” value was “not soluble”.

For the sequence “MQREDILGEALKLLETQGIADTTLEMVAERVNRPLDTLQRFWPDKEAILYDALRYLSQQVDIWRRQLLLDETLSAEQKLLARYSALSECVSNNRYPGCLFIAACTFYPDPTHPIHQLANQQKRAAHDFTHELLTTLEIDDPAMVARQMELVLEGCLSRMLVNRSQADVDTAQRLAEDILRFAQCRQGGALT”, the “soluble on expression in E. coli” value is given as “soluble”.

“MGSDKIHHHHHHMGTVPTPAGLAFFQQVQLALRHLDHAVDSAHSSRLSGHVTVGFSPSVAAVIGTHFLKLMRNRYPDIKVRLIEGLSGDLKALVNARQLDVAIIFSDDVDPQWAIQPLVKEQMFLISPKEVLNQYHLESCIDNQTITHSQLKELPLILPSQRHGLRLLLEQKIHQLKVAYEIDGLHLLMESISQLEMATIQPAGASLNSRQDLCLLRVVEPAIERINYLISLSEEELSPATLATKVVIRACVANLINEKRWPGAELINT”: the “soluble on expression in E. coli” value is reported as “not soluble”.

With “MLVAQHTVYFPDAFLTQMREAMPSTLSFDDFLAACQRPLRRSIRVNTLKTSVADFLRLTAPYGWTLTPIPWCEEGFWIERDDEDALPLGSTAEHLSGLFYIQEASSMLPVAALFADGNAPQRVMDVAAAPGSKTTQIAARMNNEGAILANEFSASRVKVLHANISRCGISNVALTHFDGRVFGAALPEMFDAILLDAPCSGEGVVRKDPDALKNWSPESNQEIAATQRELIDSAFHALRSGGTLVYSTCTLNREENESVCLWLKETYPDAVEFLPLGDLFPGANKALTEEGFLHVFPQIYDCEGFFVARLRKTQAIPALPTPKYKVGNFPFSPVKDREAAQIRQAAASVGLNWDGNLRLWQRDKEVWLFPVGIEALIGKVRFSRLGIKLAETHNKGYRWQHEAVIALASPDNENAFELTPQEAEEWYRGRDVYPQAAPVADDVLVTFQHQPIGLAKRIGSRLKNSYPRELVRDGKLFTSNA”, the “soluble on expression in E. coli” value is on record as “soluble”.

On to “MGSDKIHHHHHHMSQILQNFIKQAQYNPLHSLEEWEEDLLNRYPDPHSIVKEGKTTQEYRNYETPTRETVKEFYRLNHINQTYNFVLEKEKNFLKFDKKEMSVWDAVEFLNQLVDDSDPDTEMDQLQHLLQTSEAIRADGHPDWMVLTGFFHDMGKVLCLFGEPQWATVGDTYPVGCAFSDKIVFSEFFQENPDYNNPNYNTKYGIYEPNCGLINVHISWGHDEYFYQMMKNYLPEPALYMLRYHSFYPQHRENAYKHLMDNHDREMFKWVKLFNPYDLYSKNPTPPDWQKLRPYYEDLVAKYLPATLKF”, for which the “soluble on expression in E. coli” value was “not soluble”.

For the sequence “MGSDKIHHHHHHMPKNLYNYQEFIRLSHEGKIAFEQIDVPKNASLLTEKIDIDNHIYLVVDGYIALILNDGSQNPKIYSIQGKGTFLNYFTLLDRSNNHFNFKTLSGCSLYKYSKADMEYFLSMFPENFGFQFFIMKNQTTHIYFKSLMASSPASEKLKTTFSNMALLHGVLSDDDTVILPQAIKTSHLLSYSNLSKSCFYKDLQHLKTTNQIEKKEKSWIIHDQELYAMIQNGQTSF”, the “soluble on expression in E. coli” value is “not soluble”.

Consider “MQSISNCPIGLVSKNTINSASTIAEWVACPWKYINVVGSGRYVSNKPDKITRYDLLKAAQEAEMQELLTRNDMKGRHKRNKKSKIALETIAEENSSTESLF”, for which the “soluble on expression in E. coli” value is given as “not soluble”.

As for “MRAEVKEICKALHLAYIADRFEEVRFETKEQFLRDVLALELSCCQEAKQARLIKKAKFRELKWLKDYEWSGHIHWPATTSREELCDLRFLERKQNVLLLGSPGTGKTHLATALGIQACQQGHEVRFFRVADLVAQLEEALKNGTLGRLKRSLDTCELLILDELGYVPFQKQGSELLFHIIADCYERKSVMVTSNLEFGQWNRVFGDNRLTAALVDRLVHHAHILAFTGESYRLRNALSAIQPSSASGLEP”, the “soluble on expression in E. coli” value was “not soluble”.

Regarding “MRVASVRWFTPPTRPRPAPLFFGQERALRALEAAFLHRGHGYLVGPSGLGKRARLLAFLEGRAFPKEELVYLPLGEEAFPLLLPEGEGRALVEGVEALFAEFTPGLFREKGFLYAKNLVESRHEREAEALLQTLAQEAKAHGFALAEEEGGFTLTGQGPLPPELSAKLEETVLAYVEVRQRAQAEVAALRRSFAERLLQPRVEGLKARFPEAARYLDWLLESLLRAAALEEEVEGEALLPRLLVEGGTRVVYEPNPTPERLFGHLEYEVREGVLTTHLGLLRPGALMRAAGGVLVLEAHRVLELGSYPLLKRSLATGEIEPLAPRPEVRGPRLQPAPLKAQVFLVGPPEVIALLEEDEEFLELFPFRVEFNPEMPYTEAHVAHLGGFLEAQGVRLLPEGLAALADEARRMAGHQERLDARIYRLLDLAREAARYQDPVGREGVERALKAREDRFALEQELFLKDVEEGVVALEVTGERVGEVNGLVVLEGPLPTGRPVRITAQAGPGREGILSIDREVGLGGQVFHKAVLTLAGYLRGTYAQLGALSATVSLVFEQSYGSLEGDSAGLAELLAVLSAISGLPLRQDLAVTGAVDQTGRVLAVGRVAEKVEGFFRVCQTLGLTGTQGVVLPKANLPHLTLRREVVEAVEEGVFHLFAVEEVDEAVELLFGRRAYWVHEKVREALEHFQKLENGDGEKG”, the “soluble on expression in E. coli” value is “soluble”.

Turning to “MVGNMNREALFKTLTTGYLHFWSLSRKKLWLKGETSGNFQIIEEFKVDCDADAVLFKVTSLGPICHTGNYTCFYRSYDELVNSKS”, the “soluble on expression in E. coli” value was “soluble”.

For the sequence “MSLGSLVIKKSIIAALVVALGIAGQSVQAESVPDETLQSEKVQTEKVQAEKTETDLFSPVEQIMNPFYPKYPPTKPATGEQAELIKRGEYLAKMGDCIACHTDVEGGTPAYAGGLPINTPFGLFYSPNITPDKETGIGNWTEKDFIRALKDGRDPKGRNYFPVFPYVYFSKITDDDARALYAYFMSIPPVKLKNKSLPFPFGVPGARFALWGWNLLFFFPQENSIEYDPDKSPEWNRGRYIVDTLGHCSMCHTPMNIFGSAKNRYYLTGSFIDGYWAPNITKYGLESASHQEVADVFKAGELINKAGPVAGPMAEVNHNSLSHLTEEDRLAIATYLKTVESEEYLGVSPSDLPPSVARGRQVYLKACLICHKDNKMGAPVIGDSASWYTRLKNSGLTGLYRHAIYGYNQMPVKGACVTCSDNDIISAVDYLLNASLTRSQWQDLASGGVKKYPASGKAVYNENCAVCHNEGKLGAPKIGDKVTWKPLIAQNMDVLIENTIRGKNHLPNGGCNHCSTDEVIEAIKYMVSQSKTEGNYSLWEGHHHHHH”, the “soluble on expression in E. coli” value is “not soluble”.

Take “MGSDKIHHHHHHMMNTLAHPPGTDDATLSGMLSHFRLLEPVFDAMPDVVFFVKDAEARYALVNRTLASRCGFKEKTALLGRTAEDVFPRRFGRIYTAQDKAIINVGNQLIDQLELHLYPGRQPGWCLTCKQPLRNAAGKVVGLAGISRDLKADESSHPAYSRLATVVQSIQENYVQPLNLKQLAAMADMSVAQLERYFHKVFHLTPRQVLLKARLDAATALLVSHDKVTDVAALCGYTDHSAFTRQFKATVGVTPTEYRMLLHGTSRS”: the “soluble on expression in E. coli” value is given as “not soluble”.

As for “VALTVYYPPRVVSLEEPELRLEHCIEFVVRGNPPPTLHWLHNGQPLRESKIIHVEYYQEGEISEGCLLFNKPTHYNNGNYTLIAKNPLGTANQTINGHFLKEPFPVDEVSPTPPITVT”, the “soluble on expression in E. coli” value is “soluble”.

Take “MASSLHSPGQAFRAALAKENPLQIVGAINANHALLAQRAGYQAIYLSGGGVAAGSLGLPDLGISTLDDVLTDIRRITDVCPLPLLVDADIGFGSSAFNVARTVKSIAKAGAAALHIEDQVGAKRCGHRPNKAIVSKEEMVDRIRAAVDARTDPNFVIMARTDALAVEGLEAALDRAQAYVDAGADMLFPEAITELSMYRRFADVAQVPILANITEFGATPLFTTDELRSAHVAMALYPLSAFRAMNRAAEKVYTVLRQEGTQKNVIDIMQTRNELYESINYYQFEEKLDALYRNKKSLEHHHHHH”: the “soluble on expression in E. coli” value was “soluble”.

For the sequence “QTLLNVTLESESMAVDEVVVSARRLNRNDLGISDKEMVSATQKVDMEKLIAAAPVVSIEEALQGQLGGVDIVLGGDPGSRSAIRIRGTSTLNASSDPLIVIDGVPYPTEISDDFNFSTATEEDLGALLNISPNDIASVEVLKDASATAIWGTQGANGVLVIKTKQGT”, the “soluble on expression in E. coli” value is recorded as “not soluble”.
